Assay results as given in the DeepSol protein solubility set.

Experiment: soluble on expression in E. coli; label from the status in PepcDB or PDB records

Sequence	soluble on expression in E. coli
MMGSSSQELQTALTDVSKTCHHLWEENKDLQGRFVNELGELQRLQMVIAQLEQQQRLENVFTVKQQMTELQKRAATLYEHLTQKRNDIVIKLNDGTNFATMLQTQLIGEKLFSWKNAQKLAQIGMPFDNREQLLDEIQIEFEFLADQNWQLNMFSCWMLDLLRRAPQLNDGLAQATIGKLTAITEQLNKLLFMLVSQSFIVSVQPEPVLKTQHKFVTEVRLLIGDKLGIRQHLVNTNVSVKIIAEDEAKQLSVDYDAHKEIRNNKTVGTISNDFEKLTMNERGHLAAKFNNSKLTRIAHRKPPPKGASDLKCAASMQAATDQKYALLFFITPFQMGNLSKEEQFDVWTLSLPIMVTVHGSQDCDAQVAILWHRAFASISRNPNTTDVTAVTWDNLAIMLRNKFSLFTGARRPLSDSDLAYLSEKMLMPNVADQKPITFHRFAKQAMRDDLPFSFWEWFFSIMQLIKQKLLKFWDEGWCIGFISKNDASQSMMMCQHSSFLLRFSDSQTGAVSIGFVCEEADGQKIPFHLAPFTIKDLDQLSLASRIASCPQLKDIRYMYPAIDKEEMLRFFESEERHRVGGGDSPTGYIQSEIVMVAKTNGNFRRMSNAPSMFGADSPSPLSVQSKLDWSPGEVHQNHMMEMSDELGQILTVSDMSGDVETLLGPAFKNNITNYNPHDGNHQHNLHFVDMSQQGMMQQHHNQFYPS	not soluble
MPFEIGTMPIMSIDPKLLEVLACPQDKGPLKYLEAEQVLVNERLEIAYRIDDGIPVMLVDESIAWPPAEKAAALEHHHHHH	not soluble
GMASVLSAATATDQGPVRENNQDACLADGILYAVADGFGARGHHASATALKTLSAGFAAAPDRDGLLEAVQQANLRVFELLGDEPTVSGTTLTAVAVFEPGQGGPLVVNIGDSPLYRIRDGHMEQLTDDHSVAGELVRMGEITRHEARWHPQRHLLTRALGIGPHIGPDVFGIDCGPGDRLLISSDGLFAAADEALIVDAATSPDPQVAVRRLVEVANDAGGSDNTTVVVIDLG	soluble
MSLALAIFDLDETLIHGDCATLWSEQMGRLGWVDSESFMRRNHELMDAYSHGKLAMEEFMDFSLEPMSGRTPEEVAHLVEPWVEEVIEPIIFSDACKAIAAHRQAGDRILVISASGTHLVKPIAARLGIDEVLGIELEVQHGVYSGRTVGTLTYREGKITRLLQWLDAEEENLEGATFYSDSRNDLPLLLRVDHPQVVNPDPVLREHAQKAGWPIHHWKEGHHHHHH	soluble
MGSDKIHHHHHHMSSWEQRSHYLIEVAQRSLIGHKTFDLCRSHLVAASQISKGTIYNHFTTEADLVVAVACAEYEEWLAAAKRDMQRYPDPLTRFLYHHCYRLHQMLSQQRYVIERVMPNQALLLQATDSYRQRFEKISTEYNHWNRLTISEIGDIPGFNRAELVKDYLRGAMINSDDANRQADDVQLYCQFSYALSQLMGHSDKRIPTKPAFVHWLSHLPSTSAISAV	not soluble
MGKGDSIIVAVRVRPFNDREKTRNCKLVIEMPDEETTVIRDPKTNDEKRFTYDHSYWSHDGFSEKKNGYLEPTDPHYADQRRVFEDLGRGVLANAWAGYNCSLFAYGQTGSGKSYSIVGFKNNKGIVPIVCEELFKQIADNKKKNMQFEVFVSMMEIYCEKVRDLLSSTPPPKGGLKVREHPKNGFYVENLTTVPVNSFKEIEAKIEEGTKSRTIAATQMNATSSRAHTIVKITFNQKSSKQAGGTSMKKSEINLVDLAGSERQSAAGTEGDRLKEGIVINQSLTTLGRVIKALHDSQKAKSGKKTQIPYRDSVLTCLLKNALGGNSKTIMIAAISPADINFEETLSTLRFADRAKSIKTNAVVNENQTERALRELREENLRLQSQIQGGTAGDASNEEIEKLRRQLAENQKEMEEMEKSWQQKIAEEAAKHASGASEKVEMEAKKKKMCHLWNLNEDPALTNVIVHFIPVGESVVGNKPTSSGNFIQMSGLSILPQHVTLKNDGNNQIHLSPCSEDLDIFINGKPVHGETQLQQNDRVFFGGNHLYVFNNPTKKGIRTDITYENAQAEIAQNHAAALGNRGLGGGSKRDLILEEELMSTLPLVQRANAMATELGRNVKFEIVLVSPEMRGLTSGLTEIWVKVHNISEDTYFLWEKSRFMNRYYGMQEMYEAKQDGSEDWNMPKERDPFYEPPDSPVFIASSVVFLQSLAYLIDVEEQFPIVDLSGQEIGLLTVGLSPCSTTGKELRGEYVEDPDQLIGKNIAFKVKVISAVGLPRRILKSNCKYRFFGSKKMTTTATVSGNTPAYGHEETFQFKPVTKEVADYLANSNLYITFWGTQRPRGASSRKNSISTIGSNEAREGPNKAKRVERLVHQAKTSENRNISVKALETVLKGVDDNENRKTRKQSMKKAGSTTIKSRSGSKKPKAK	not soluble
MCKDVSGQNLLVAPDAINHHVKTCRENMRYMHYIAPEYENNTELTSAADIYSFGICSLEIAVIGGLSGCQNGSSEGPVTEDVIEKAIRSLEDPMQQDFIRQCLRKDPAERPSARELLFHQILFEVHSLKLLSAHAIVDSKKYEDVSESAFRIKDNETIAATSKLREMAYCQVAAFQVDLEKFLDDVRNGIYPLTAFAPLAHQPSTTLRAYSNTNPSTLITTDISAPSSTHPSANSTITAETSVNTSLPGQSSQPSGTTTNTNGPSSIGKSASPEAVDKKIGEVTSTESTSKVEVEVNGANVTIGSSNGRDAGSPTPEEEGEPNGERDMRLENRHILEINVHIENEEMSIVLLLEDQMHRQLTTSINKGDNPETLTENLITHGFMCQLDSEGVEKAIAVAFDIRAARIAEGVQEEENETSTRESNSEAPIEHGTSSSITNSVKPIVDSVAPSSQTPTTTTSS	not soluble
MELWLVRHGETLWNREGRLLGWTDLPLTAEGEAQARRLKGALPSLPAFSSDLLRARRTAELAGFSPRLYPELREIHFGALEGALWETMDPRYKEALLRFQGFHPPGGESLSAFQERVFRFLEGLKAPAVLFTHGGVVRAVLRALGEDGLVPPGSAVAVDWPRRVLVRLALDGEEATG	soluble
MNIVEPLRDKDDIQAMKDYLSSWNEKYYMLFLLGINTGFRVGDILKLKVKDVQGWHIKVREQKTGKYKSIKMTRPLKNELREFVKDKELHEYLFQSRVGKNKALSYKTVYWFLKRAAEDLGIDNVGTHTMRKTFGYHYYKKYKNVADLMSLFNHSSPAVTLIYICVRQDELDTKMSNFSL	not soluble
MGSDKIHHHHHHMPKTISEQNLLRLIDTLVNEGKRVIGPKAAGTMTLYEPLATGEELNLGELPRRSAKETFFPLCETILTYERDREGVRVTDVDPGAIPETVLVAARPCDVAAAPVLDSVFSWDYQDEFYLSRRGKTTIIGLACARADDACFCTAVGLSTNDTKGSDLFLTTLTGGGYRCDVITDKGMALLAAHGGLFAEGDGTPAPLAEPALGKLDLEKIKQWLDNHFEDPLWEEIAERCAGCGACAFLCPACHCFDINDEGGEKKGARRKSWDACGFGKFTNHASGHNPRDVQPQRYRNRIMHKFKYYVDKFDQRLCTGCGRCIRACPVGIDIAEILSAIGTRDQGPGTGKD	not soluble
MSTYEGRWKTVKVEIEDGIAFVILNRPERRNAMSPTLNREMIDVLETLEQDPAAGVLVLTGAGEAWTAGMDLKEYFREVDAGPEILQEKIRREASQWQWKLLRMYAKPTIAMVNGWCFGGGFAPLVACDLAICADEATFGLSEINWGIPPGNLVSKAMADTVGHRQSLYYIMTGKTFGGQKAAEMGLVNESVPLAQLREVTIELARNLLEKNPVVLRAAKHGFKRCRELTWEQNEDYLYAKLDQSRLLDTEGGREQGMKQFLDDKSIKPGLQAYKR	soluble
RKPTALIILDGFGLREETYGNAVAQAKKPNFDGYWNKFPHTTLTACGEAVGLPEGQMGNSEVGHLNIGAGRIVYQSLTRVNVAIREGEFDKNETFQSAIKSVKEKGTALHLFGLLSDGGVHSHMNHMFALLRLAAKEGVEKVYIHAFLDGRDVGPKTAQSYIDATNEVIKETGVGQFATISGRYYSMDRDKRWDRVEKCYRAMVNGEGPTYKSAEECVEDSYANGIYDEFVLPSVIVNEDNTPVATINDDDAVIFYNFRPDRAIQIARVFTNGDFREFDRGEKVPHIPEFVCMTHFSETVDGYVAFKPMNLDNTLGEVVAQAGLKQLRIAETEKYPHVTFFFSGGREAEFPGEERILINSPKVATYDLKPEMSIYEVTDALVNEIENDKHDVIILNFANCDMVGHSGMMEPTIKAVEATDECLGKVVEAILAKDGVALITADHGNADEELTSEGEPMTAHTTNPVPFIVTKNDVELREDGILGDIAPTMLTLLGVEQPKEMTGKTIIK	soluble
MDPKRWWEKQEDIVISKDQIPRCDNKEVKMFGGMLLACDDVVTEDQLSWAPGFTDLPKKRGKKKDLNKFDAGILPGTSKQNNPMDPQVRLLLEASWEAMVDAGINPRGLRGSQIGDFDECATPGTSGTQKQNPVTEMGCIMSDTVPSMFSNRISYTFDLQGPSHSADKINFSTKKRMTKLRNRNSIV	not soluble
MGSDKIHHHHHHMKKIQLTNAHKEKLFQIPLFRDLPLNIKESLLDKLDFVIYAADKKEIVVTQGTPCNKLYVLLEGKLRTDIIDGLGNEVMIEYIIAPRTFATPHLFNSNNTLPATFTALEDSVVLMATKDSTFKVISQDPQVLHNFLCIAGNCNICTVSRLKPLSRKTVRERFIVYLFEHKKKDSLTVEIMHTQSQLAEYLNVSRPALSKEINKIIKEGLITMEGKKIEILNKMALEKYL	not soluble
MGAGREVSVSLDGVRDKNLMQLKILNTVLFPVRYNDKYYADAIAAGEFTKLAYYNDICVGAIACRLEKKESGAMRVYIMTLGVLAPYRGIGIGSNLLNHVLDMCSKQNMCEIYLHVQTNNEDAIKFYKKFGFEITDTIQNYYINIEPRDCYVVSKSFAQSEANK	soluble
MINHIEEPSSMDAHAVSFRVEKDDLSGAVSWVARNLPTKPTQPVLRAVVITADDEGLEFAGFDYEVSTKVHINADVRQPGRIAVAGKLMSDIIGTLPNKTIEVFVEGTQVQVVCGSSRFELPLIPLDEYPPLPQLPAVTGAIDPNLFTDAVLQVAAAAGRDETLPMLTGIHMEIDGENVTLTATDRFRLALRRFTWSPANPEAKAKLLIPAKNLSDNARSLDSGSTEPVEIAVGTGENIGAEGLFGIHIDNRQTTTRMLDADFPNVSPLLPKVHNAMASVEISALSDAIRRVALVAERNAQIRMQFTRDEVILSAGGSDAGHAEESVPCAFTGDQEFLIAFNSAYLRDGLSVIRTSRVVFGFTEPSRPAIMIPEPETLPEASADGTYPTPDTEFTYLLMPVRLPG	soluble
RKPSFLALPGHLVKSEETVILQCWSDVMFEHFLLHREGKFNNTLHLIGEHHDGVSKANFSIGPMMPVLAGTYRCYGSVPHSPYQLSAPSDPLDMVIIGLYEKPSLSAQPGPTVQAGENVTLSCSSRSSYDMYHLSREGEAHERRLPAVRSINGTFQADFPLGPATHGGTYRCFGSFRDAPYEWSNSSDPLLVSVT	soluble
MGVHSFWDIAGPTARPVRLESLEDKRMAVDASIWIYQFLKAVRDQEGNAVKNSHITGFFRRICKLLYFGIRPVFVFDGGVPVLKRETIRQRKERRQGKRESAKSTARKL	not soluble
MNRWQGIIKQYKKYLPVDENTPIVTLYEGNTPLIEADNLARAIGFKGKIYLKYEGLNPTGSFKDRGMTLAISKAVEAGKRAVICASTGNTSASAAAYAARAGLRAYVLLPKGAVAIGKLSQAMIYGAKVLAIQGTFDDALNIVRKIGENFPVEIVNSVNPYRIEGQKTAAFEICDTLGEAPDYHFIPVGNAGNITAYWKGFKIYYEEGKITKLPRMMGWQAEGAAPIVKGYPIKNPQTIATAIKIGNPYSWKSALKAAQESGGKIDAVSDSEILYAYKLIASTEGVFCEPASAASVAGLIKLVREGFFKGGEVVTCTLTGNGLKDPDTAIKVCEEPITVPPDFDEVVKVLGF	soluble
